According to publication PMC3631714 (Chembiochem : a European journal of chemical biology, 2012):

B1: first Sam domain of Odin (Odin-Sam1) (domain or fragment, human, UniProt Q92625 691-770, looked up)
chain: ISGLRTLEQSVGEWLESIGLQQYESKLLLNGFDDVHFLGSNVMEEQDLRDIGISDPQHRRKLLQAARSLPKVKALGYDGN
B2: Sam domain of the EphA2 receptor (EphA2-Sam) (domain or fragment, human, UniProt P29317 901-976, looked up)
chain: SEGVPFRTVSEWLESIKMQQYTEHFMAAGYTAIEKVVQMTNDDIKRIGVRLPGHQKRIAYSLLGLKDQVNTVGIPI
B3: Arap3-Sam wild-type (domain or fragment, human, UniProt Q8WWN8 1-80, looked up)
chain: MAAPQDLDIAVWLATVHLEQYADTFRRHGLATAGAARGLGHEELKQLGISATGHRKRILRLLQTGTEEGSLDPKSDSAME

What was measured:
Arap3-Sam wild-type = target: B3; assay: SPR
[1] = target: B1; assay: NMR titration
[2] = target: B1; assay: ITC

Binder: B1
Kd (Arap3-Sam wild-type): 2.9 ± 0.4 µM

Binder: B2
binding result [1]: binds

Binder: B3
Kd [2]: 0.37 ± 0.08 µM
